In assay [1] the target is T1, biotin-peptide MEDYVNFNFT (human).
T1 peptide: Biotin-MEDYVNFNFT
Briefly: ELISA biotin-peptide; scFv 2.5 ug/mL; repI. The procedure: (§1) The peptides were synthesized naked or with a N-terminal Biotin modification with a purity of >98%. All four scFvs were verified by ELISA that can be detected with anti-His antibodies. ELISA was performed for scFv-peptide binding validation. Briefly, naked peptides were coated (50 μg/mL) in 0.58M carbonate-bicarbonate buffer pH9.5, 100 μL/well, 4° C. O/N. Then after blocking (3% BSA-PBS, 300 μL/well 37° C. 1.5 h) and washing (PBS+Tween-20 0.05% v/v (0.05% PBST), wells were incubated with each purified scFv antibody at concentration of 1 μg/mL in PBS at 37° C. 1 h. After washing (0.05% PBST), wells were incubated with secondary antibodies (goat anti-His IgG-HRP) in PBS, 37° C., 30 min. After washing, and incubation with TMB substrate, reactions were stopped with 2M HCl and reading was quantified at OD450.
(§2) ELISA with biotin-conjugated peptides (5 μg/mL) was performed very similar to described above with minor modifications.
(§3) A full curve ELISA was performed for each positive scFv/biotin-peptide pair in order to confirm previous results. Tables 15-17 show ELISA results of the dose-dependent full curve for each positive peptide with scFv “CCR9_HUM”, “Comp-2” and “Comp-3”, respectively.

For assay [2], the target named is T2, biotin-peptide SSMEDYVNFN (human).
T2 peptide: Biotin-SSMEDYVNFN
Briefly: ELISA biotin-peptide; scFv 2.5 ug/mL; repI. As for the experimental part: as §1, §2, §3

Assay [3] addresses T3, biotin-peptide SMEDYVNFNF (human).
T3 peptide: Biotin-SMEDYVNFNF
Briefly: ELISA biotin-peptide; scFv 2.5 ug/mL; repI. The procedure: as §1, §2, §3

The target in assay [4] is T4, biotin-peptide TSSMEDYVNF (human).
T4 peptide: Biotin-TSSMEDYVNF
Briefly: ELISA biotin-peptide; scFv 2.5 ug/mL; repI. The procedure:
as §1, §2, §3

The target in assay [5] is T1, biotin-peptide MEDYVNFNFT
Briefly: ELISA biotin-peptide; scFv 0.3125 ug/mL; repII. The procedure: as §1, §2, §3

For assay [6], the target named is T2, biotin-peptide SSMEDYVNFN
Briefly: ELISA biotin-peptide; scFv 0.3125 ug/mL; repII. The procedure: as §1, §2, §3

The target of assay [7] is T3, biotin-peptide SMEDYVNFNF
In words: ELISA biotin-peptide; scFv 0.3125 ug/mL; repII. As for the experimental part:
as §1, §2, §3

Assay [8] concerns the target T4, biotin-peptide TSSMEDYVNF
Briefly: ELISA biotin-peptide; scFv 0.3125 ug/mL; repII. The procedure: as §1, §2, §3

In assay [9] the target is T5, Peptide 4-BSA (SMEDYVNFNF-C conjugated to BSA) (human).
T5 peptide: SMEDYVNFNFC(BSA)
Briefly: ELISA; Ab 0.5 ug/mL; repI. As for the experimental part: (§4) In brief, plates with each non-conjugated peptide (50 μg/mL) or BSA-conjugated peptide (5 μg/mL) were coated in 0.58M carbonate-bicarbonate buffer pH9.5, 100 μL/well, at 4° C. […] After washing, wells were incubated with the 3, 3′,5,5′-Tetramethylbenzidine (TMB) HRP substrate and reactions were stopped with 2M HCl and OD450 was recorded.

In assay [10] the target is T6, antigen peptide-BSA (immunisation peptide #1 MADDYGSESTSSMEDYVNFNF-C conjugated to BSA) (human, extra C-terminal Cys conjugated to BSA).
T6 construct: also called Positive control antigen peptide-BSA; MADDY peptide
T6 peptide: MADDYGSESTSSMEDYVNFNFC
In words: ELISA; Ab 0.5 ug/mL; repI. As for the experimental part: as §4

The target in assay [11] is T7, Peptide 2-BSA (GSESTSSMED-C conjugated to BSA) (human).
T7 peptide: GSESTSSMEDC(BSA)
In words: ELISA; Ab 0.5 ug/mL; repI. The procedure: as §4

In assay [12] the target is T8, Peptide 1, non-conjugated (MADDYGSEST-C) (human).
T8 construct: With the extra C-terminal Cys
T8 peptide: MADDYGSESTC
In words: ELISA; Ab 0.5 ug/mL; repI. As for the experimental part: as §4

For assay [13], the target named is T9, Peptide 3, non-conjugated (SSMEDYVNFN-C) (human).
T9 construct: With the extra C-terminal Cys
T9 peptide: SSMEDYVNFNC
Briefly: ELISA; Ab 0.5 ug/mL; repI. The procedure: as §4

In assay [14] the target is T10, Peptide 2, non-conjugated (GSESTSSMED-C) (human).
T10 construct: With the extra C-terminal Cys
T10 peptide: GSESTSSMEDC
In words: ELISA; Ab 0.5 ug/mL; repI. The procedure:
as §4

Assay [15] concerns the target T11, Peptide 3-BSA (SSMEDYVNFN-C conjugated to BSA) (human).
T11 peptide: SSMEDYVNFNC(BSA)
Briefly: ELISA; Ab 0.5 ug/mL; repI. As for the experimental part:
as §4

Assay [16] addresses T12, Peptide 1-BSA (MADDYGSEST-C conjugated to BSA) (human).
T12 peptide: MADDYGSESTC(BSA)
In words: ELISA; Ab 0.5 ug/mL; repI. The procedure: as §4

For assay [17], the target named is T13, Peptide 4, non-conjugated (SMEDYVNFNF-C) (human).
T13 construct: With the extra C-terminal Cys
T13 peptide: SMEDYVNFNFC
In words: ELISA; Ab 0.5 ug/mL; repI. The procedure:
as §4

Assay [18] has as its target T14, BSA (negative control coating) (bovine, UniProt P02769 25-607).
T14 construct: also called Negative control BSA
In words: ELISA; Ab 0.5 ug/mL; repI. As for the experimental part:
as §4

Assay [19] has as its target T7, Peptide 2-BSA (GSESTSSMED-C conjugated …). Briefly: ELISA; Ab 0.0625 ug/mL; repII. The procedure: as §4
In assay [20] the target is T8, Peptide 1, non-conjugated (MADDYGSEST-C). Briefly: ELISA; Ab 0.0625 ug/mL; repII. As for the experimental part: as §4
In assay [21] the target is T9, Peptide 3, non-conjugated (SSMEDYVNFN-C). Briefly: ELISA; Ab 0.0625 ug/mL; repII. The procedure: as §4
For assay [22], the target named is T11, Peptide 3-BSA (SSMEDYVNFN-C conjugated …). Briefly: ELISA; Ab 0.0625 ug/mL; repII. As for the experimental part: as §4
For assay [23], the target named is T12, Peptide 1-BSA (MADDYGSEST-C conjugated …). Briefly: ELISA; Ab 0.0625 ug/mL; repII. The procedure:
as §4

For assay [24], the target named is T13, Peptide 4, non-conjugated (SMEDYVNFNF-C). In words: ELISA; Ab 0.0625 ug/mL; repII. As for the experimental part:
as §4

The target of assay [25] is T7, Peptide 2-BSA (GSESTSSMED-C conjugated …). In words: ELISA, BSA-conjugated peptide coated. The procedure:
as §4

Assay [26] deals with T12, Peptide 1-BSA (MADDYGSEST-C conjugated …). Briefly: ELISA, BSA-conjugated peptide coated. As for the experimental part: as §4

Where no end group is shown, it is not given here. The star is where a group is joined. Biotin = O=C1N[C@H]2[C@H](CS[C@H]2CCCCC(=O)*)N1

T14 sequence (P02769 25-607 limits assumed): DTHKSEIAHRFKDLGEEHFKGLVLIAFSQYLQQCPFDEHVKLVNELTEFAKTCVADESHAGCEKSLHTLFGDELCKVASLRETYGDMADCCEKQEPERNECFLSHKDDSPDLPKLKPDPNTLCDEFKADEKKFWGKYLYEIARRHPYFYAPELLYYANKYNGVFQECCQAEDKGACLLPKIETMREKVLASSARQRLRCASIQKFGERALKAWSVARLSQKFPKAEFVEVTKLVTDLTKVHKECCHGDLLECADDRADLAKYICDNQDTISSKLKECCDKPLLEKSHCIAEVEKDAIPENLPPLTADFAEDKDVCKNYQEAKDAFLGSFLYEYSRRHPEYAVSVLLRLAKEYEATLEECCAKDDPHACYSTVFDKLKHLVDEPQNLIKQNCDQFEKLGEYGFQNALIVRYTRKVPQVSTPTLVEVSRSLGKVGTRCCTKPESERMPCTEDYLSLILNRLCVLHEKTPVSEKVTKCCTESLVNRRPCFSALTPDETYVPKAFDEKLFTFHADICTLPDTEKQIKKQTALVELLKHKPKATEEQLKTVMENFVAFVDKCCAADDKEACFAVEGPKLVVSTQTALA

B1: CCR9_HUM2 scFv (humanized anti-CCR9 scFv, SEQ ID NO: 17 with C-terminal 6xHis tag) (scFv)
scFv: QVQLVQSGAEVKKPGASVKVSCTASGYSFTDYIIYWVKQAHGQSLEWMGYIDPNNYNTRYSQKFQGKVTITVDKSSTSAYMELNSLTSDDTAVYYCARDVYWGQGTTVTVSSGGGGSGGGGSGGGGSGGGGSDVVMTQTPLSLSVTPGQPASISCRSSQSLVHSNGKTYLQWYLQKPGQSPKLLIYKVSNRFSGVPDRFSGSGSGTDFTLKISRVEAEDVGVYFCAQSTHVWTFGGGTKVEIKRAHHHHHH
For the molecule B1, the OD450 in assay [1] came out at 1.66 OD; in [2], 1.81 OD; in assay [3] it was 1.76 OD; in [4], 1.42 OD; in assay [5], 1.35 OD; in assay [6] it was 1.73 OD. In addition, the values for the OD450 in assay [7] and in [8] were 1.65 OD and 0.45 OD, respectively.

B2: anti-CCR9 antibody clone 115 (murine, from hybridoma #115) (antibody, V domains shown)
VH: QVQLKQSGPELVKPGTSVRVSCTASGYSFTDYIIYWVKQSHGRSLEWIGYIDPNNYNTRYSQKFKGKATLTVDKSSTSAFMHLNSLTSDDSAVYYCARDVYWGQGTTLTVSS
VL: DVVMTQTPLSLTVSLGDQASISCRSSQSLVHSNGKTYLQWYLQKPGQSPKLLIYKVSNRFSGVPDRFSGSGSGTDFTLKISRVEAEDLGVYFCAQSTHVWTFGGGTKLEIKR
notes: Mouse IgG1
As for B2, the OD450 in [9] came out at 2.67 OD; in assay [10], 2.44 OD; in assay [11] it was 0.02 OD; in assay [12], 0.01 OD; in [13], 1.94 OD; in assay [14], 0.02 OD. Besides, the OD450 stood at 2.03 OD in [15]; 0.03 OD in assay [16]; 2.29 OD in [17]; 0.02 OD in assay [18]; 0.01 OD in assay [19]; 0.01 OD in assay [20]. The OD450 was determined as 1.67 OD in assay [21], 1.78 OD in assay [22], 0.01 OD in assay [23] and 1.19 OD in assay [24]. For the same molecule, the binding result in assay [25] and in assay [26] was “no binding (tested: 1 ug/mL)” each time.
